Source: patent publication US5906819

What was measured:
[1] = target: bovine Rho-kinase (bovine)
[2] = target: bovine Rho-kinase (bovine); remark: listed apart in the source
[3] = target: bovine Rho-kinase (bovine); remark: listed apart in the source
[4] = target: T1, myosin light chain (chicken) (UniProt P02612)
T1 sequence: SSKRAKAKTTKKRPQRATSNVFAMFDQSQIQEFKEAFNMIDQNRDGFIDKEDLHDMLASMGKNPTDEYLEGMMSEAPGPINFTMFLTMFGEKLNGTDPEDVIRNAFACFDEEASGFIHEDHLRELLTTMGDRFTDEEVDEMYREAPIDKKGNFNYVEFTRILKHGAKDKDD

myosin light chain kinase, sequence (P11799 935-1906 limits assumed): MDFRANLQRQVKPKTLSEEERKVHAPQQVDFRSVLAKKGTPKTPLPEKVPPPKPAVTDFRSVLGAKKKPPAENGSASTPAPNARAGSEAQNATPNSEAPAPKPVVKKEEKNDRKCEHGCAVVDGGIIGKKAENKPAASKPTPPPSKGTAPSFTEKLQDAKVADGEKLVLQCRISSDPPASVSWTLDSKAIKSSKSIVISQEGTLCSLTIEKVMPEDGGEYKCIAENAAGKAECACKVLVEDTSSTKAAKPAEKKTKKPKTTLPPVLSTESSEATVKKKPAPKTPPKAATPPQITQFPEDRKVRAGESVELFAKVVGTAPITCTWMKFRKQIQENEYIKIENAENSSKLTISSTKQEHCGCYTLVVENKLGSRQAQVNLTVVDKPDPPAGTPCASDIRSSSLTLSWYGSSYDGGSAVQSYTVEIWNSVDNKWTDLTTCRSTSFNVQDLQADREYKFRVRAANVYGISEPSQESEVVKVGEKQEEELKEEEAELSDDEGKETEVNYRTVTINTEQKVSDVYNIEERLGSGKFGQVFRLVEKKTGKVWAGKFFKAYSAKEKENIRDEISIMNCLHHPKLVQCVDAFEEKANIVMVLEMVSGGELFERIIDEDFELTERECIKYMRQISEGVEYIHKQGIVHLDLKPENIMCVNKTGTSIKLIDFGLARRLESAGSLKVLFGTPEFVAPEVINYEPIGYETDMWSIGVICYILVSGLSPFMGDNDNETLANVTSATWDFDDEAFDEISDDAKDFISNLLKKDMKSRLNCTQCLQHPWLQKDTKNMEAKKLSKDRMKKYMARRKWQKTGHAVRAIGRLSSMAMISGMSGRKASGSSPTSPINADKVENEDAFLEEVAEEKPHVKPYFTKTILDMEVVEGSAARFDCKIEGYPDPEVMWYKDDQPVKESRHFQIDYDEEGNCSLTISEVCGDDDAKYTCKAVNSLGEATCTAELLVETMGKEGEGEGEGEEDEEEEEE

GTPγS·GST-RhoA (from UniProt P61586)
autophosphorylation of bovine Rho-kinase [1]: 2 times | phosphorylation of rat myosin-binding subunit by bovine Rho-kinase [2]: 15 times | phosphorylation of MBS-C by bovine Rho-kinase [3]: 5 times

bovine Rho-kinase (enzyme)
phosphorylation of the myosin light chain of intact myosin (mol of phosphate into 1 mol) (intact myosin (chicken)): 1 | apparent Km for myosin light chain, in the absence of GTPγS·GST-RhoA [4]: 12.6 µM | apparent Km for myosin light chain, in the presence of GTPγS·GST-RhoA [4]: 2.6 µM

myosin light chain kinase (from UniProt P11799-2) (enzyme)
apparent Km for myosin light chain [4]: 52.1 µM
